# Numbering of substitutions follows the chain as printed. Names and notes keep the numbering of the source. Values joined by “and” are separate entries in the source; they are usually repeats but may differ in a detail not shown here. Identical values can stand only once.
# B1: L1P8D4: FABP probe, substitutions Y14M L72M Y117A vs SEQ ID NO: 2 (protein, listed as Rattus norvegicus)
# chain: AFDGTWKVDRNENMEKFMEKMGINVVKRKLGAHDNLKLTITQEGNKFTVKESSNFRNIDVVFELGVDFAYSMADGTELTGTWTMEGNKLVGKFKRVDNGKELIAVREISGNELIQTATYEGVEAKRIFKKE
# modifications: PEPTIDE (1)...(131) wild-type rat intestinal fatty acid binding protein
# B2: L1P16G10: FABP probe, substitutions Y14W L72M Y117A vs SEQ ID NO: 2 (protein, listed as Rattus norvegicus)
# chain: B1 chain with M14W
# modifications: PEPTIDE (1)...(131) wild-type rat intestinal fatty acid binding protein
# B3: L1P8H2: FABP probe, substitutions Y14M L38M L72W vs SEQ ID NO: 2 (protein, listed as Rattus norvegicus)
# chain: B1 chain with L38M, M72W, A117Y
# modifications: PEPTIDE (1)...(131) wild-type rat intestinal fatty acid binding protein
# B4: L1P17A8: FABP probe, substitutions L38M L72G Y117F vs SEQ ID NO: 2 (protein, listed as Rattus norvegicus)
# chain: B1 chain with M14Y, L38M, M72G, A117F
# modifications: PEPTIDE (1)...(131) wild-type rat intestinal fatty acid binding protein
# B5: L1P9G10: FABP probe, substitutions L38I L72G vs SEQ ID NO: 2 (protein, listed as Rattus norvegicus)
# chain: B1 chain with M14Y, L38I, M72G, A117Y
# modifications: PEPTIDE (1)...(131) wild-type rat intestinal fatty acid binding protein
# B6: L1P17A1: FABP probe, substitutions Y14I L72W vs SEQ ID NO: 2 (protein, listed as Rattus norvegicus)
# chain: B1 chain with M14I, M72W, A117Y
# modifications: PEPTIDE (1)...(131) wild-type rat intestinal fatty acid binding protein
# B7: L1P5A10: FABP probe, substitution Y117A vs SEQ ID NO: 2 (protein, listed as Rattus norvegicus)
# chain: B1 chain with M14Y, M72L
# modifications: PEPTIDE (1)...(131) wild-type rat intestinal fatty acid binding protein
# B8: L1P7H4: FABP probe, substitutions Y14I L38M L72W vs SEQ ID NO: 2 (protein, listed as Rattus norvegicus)
# chain: B1 chain with M14I, L38M, M72W, A117Y
# modifications: PEPTIDE (1)...(131) wild-type rat intestinal fatty acid binding protein
# B9: L1P1C3: FABP probe, substitutions Y14M L72W vs SEQ ID NO: 2 (protein, listed as Rattus norvegicus)
# chain: B1 chain with M72W, A117Y
# modifications: PEPTIDE (1)...(131) wild-type rat intestinal fatty acid binding protein
# B10: 38Y 74F 72A (protein, listed as Rattus norvegicus)
# chain: B1 chain with M14Y, L38Y, M72A, D74F, A117Y
# modifications: PEPTIDE (1)...(131) wild-type rat intestinal fatty acid binding protein
# B11: 73W 74T (protein, listed as Rattus norvegicus)
# chain: B1 chain with M14Y, M72L, A73W, D74T, A117Y
# modifications: PEPTIDE (1)...(131) wild-type rat intestinal fatty acid binding protein
# B12: 21F 78I 102F 72A (protein, listed as Rattus norvegicus)
# chain: B1 chain with M14Y, M21F, M72A, L78I, L102F, A117Y
# modifications: PEPTIDE (1)...(131) wild-type rat intestinal fatty acid binding protein
# B13: 72V 73L 74W (protein, listed as Rattus norvegicus)
# chain: B1 chain with M14Y, M72V, A73L, D74W, A117Y
# modifications: PEPTIDE (1)...(131) wild-type rat intestinal fatty acid binding protein
# B14: 72G 73W 74E (protein, listed as Rattus norvegicus)
# chain: B1 chain with M14Y, M72G, A73W, D74E, A117Y
# modifications: PEPTIDE (1)...(131) wild-type rat intestinal fatty acid binding protein
# B15: 73W 74I (protein, listed as Rattus norvegicus)
# chain: B1 chain with M14Y, M72L, A73W, D74I, A117Y
# modifications: PEPTIDE (1)...(131) wild-type rat intestinal fatty acid binding protein
# B16: 60T 104T 115W 74F 72A (protein, listed as Rattus norvegicus)
# chain: B1 chain with M14Y, V60T, M72A, D74F, A104T, Q115W, A117Y
# modifications: PEPTIDE (1)...(131) wild-type rat intestinal fatty acid binding protein
# B17: 18L 73V 72A (protein, listed as Rattus norvegicus)
# chain: B1 chain with M14Y, M18L, M72A, A73V, A117Y
# modifications: PEPTIDE (1)...(131) wild-type rat intestinal fatty acid binding protein
# Test: Probe fluorescence ratio response to linolenic acid relative to ADIFAB2
# Format: binding
# Conditions: Table 4
# How it was run: (§1)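 Each fatty acid's response was expressed relative to ADIFAB2, the rI-FABP-L72A probe, as ΔR/ΔRreference. ΔR is the change in the background-corrected two-wavelength intensity ratio R=Fλ1/Fλ2 from its analyte-free baseline R0. Emission was read near about 420-480 nm for unbound and about 495-580 nm for FFA-bound probe.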
row,Molecule,ΔR/DRAΔ2 LNA
1,B1,2.0
2,B2,1.3
3,B3,−1.3
4,B4,0.7
5,B5,0.7
6,B6,−0.9
7,B7,0.7
8,B8,−1.1
9,B9,−1.0

# Same assay, conditions: response relative to ADIFAB2
row,Molecule,DR/DR LNA
1,B10,1.166
2,B11,3.286
3,B12,3.006
4,B13,1.209
5,B14,5.501
6,B15,1.325
7,B16,2.017

# Test: Probe fluorescence ratio response to palmitoleic acid relative to ADIFAB2
# Format: binding
# Conditions: response relative to ADIFAB2
# Description: (§2) In an alternate preferred embodiment, the protein is rI-FABP that has Ala substituted for Leu at position 72 (rI-FABP-L72A) with the resulting probe named ADIFAB2. […] Other probes useful in embodiments of the invention are shown in Tables 1-6 and are also described in U.S. application Ser. No. 11/085,792, filed Mar. 21, 2005 which is incorporated herein by reference. The indicated substitutions are with reference to the ADIFAB protein of SEQ ID NO: 2.
# (§3) ADIFAB2 also has an altered spectral response, making it especially useful for measurements of FFAu in blood samples (Apple et al, Clinical Proteomics, (2004) 1:41-44, U.S. patent application Ser. No. 10/670,958). The wavelengths at the maximum intensities emitted by these fluorescently-labeled I-FABP's in the absence of FFA is about 420 to 480 nm. The emission wavelengths at the maximum intensities emitted by these fluorescently-labeled I-FABP's with FFA bound are between about 495 to 580 nm. Experiments typically involve measuring the fluorescence response within both emission maxima or at wavelengths for which the effect of interfering molecules such as hemoglobin can be eliminated as described in U.S. application Ser. No. 10/670958 and PCT/US2004/030521 and the calculation of the ratio ‘R’ of the two fluorescence intensities. The baseline value for this ratio, measured in the absence of analyte, is designated R0.
# (§4) The intensity ratio (“R” value) is determined as follows. The ratio is calculated using the following formula: R=Fλ1/Fλ2 wherein, Fλ1 is the measured fluorescence intensities (intensity of sample with probe present minus intensity of sample without probe present) at wavelength 1 and Fλ2 is the measured fluorescence intensities (intensity of sample with probe present minus intensity of sample without probe present) at wavelength 2. Then, for a given probe, ΔR, the difference in R value between the measurement in the presence of the test compound (agent) and in the absence of the test compound (agent), is calculated as follows: ΔR=R+agent−R0 In some embodiments, the ΔR value may then be compared to some reference, for example, an agent with a known affinity for a given probe, by ΔR/ΔRreference. Measurements of fluorescence intensities are obtained using standard techniques.
row,Molecule,DR/DR POA
1,B10,1.514
2,B11,5.818
3,B12,2.788
4,B13,1.710
5,B14,6.069
6,B15,2.697
7,B16,2.511

# Test: Probe fluorescence ratio response to stearic acid relative to ADIFAB2
# Format: binding
# Conditions: response relative to ADIFAB2
# Description: as §2, §3, §4
row,Molecule,DR/DR SA
1,B10,0.362
2,B11,0.726
3,B12,2.367
4,B13,0.348
5,B14,0.955
6,B15,0.423
7,B16,0.633
8,B17,0.359 and 0.427

# Test: Probe fluorescence ratio response to linoleic acid relative to ADIFAB2
# Format: binding
# Conditions: Table 4
# How it was run: as §1
row,Molecule,ΔR/DRAΔ2 LA
1,B1,2.0
2,B2,1.1
3,B3,−1.5
4,B4,0.8
5,B5,0.8
6,B6,−1.0
7,B7,1.2
8,B8,−1.3
9,B9,−1.1

# Same assay, conditions: response relative to ADIFAB2
row,Molecule,DR/DR LA
1,B10,0.926
2,B11,2.480
3,B12,2.872
4,B13,1.225
5,B14,5.045
6,B15,1.130
7,B16,1.609

# Test: Probe fluorescence ratio response to palmitic acid relative to ADIFAB2
# Format: binding
# Conditions: Table 4
# How it was run: as §1
row,Molecule,ΔR/DRAΔ2 PA
1,B1,0.9
2,B2,0.8
3,B3,−0.6
4,B4,0.4
5,B5,0.4
6,B6,−0.4
7,B7,0.4
8,B8,−0.6
9,B9,−0.4

# Same assay, conditions: response relative to ADIFAB2
row,Molecule,DR/DR PA
1,B10,1.397
2,B11,3.883
3,B12,2.383
4,B13,1.276
5,B14,3.944
6,B15,1.884
7,B16,1.920

# Test: Probe fluorescence ratio response to arachidonic acid relative to ADIFAB2
# Format: binding
# Conditions: Table 4; Arachidonic acid
# How it was run: as §1
row,Molecule,ΔR/DRAΔ2 AA
1,B1,1.6
2,B2,0.9
3,B3,−1.3
4,B4,1.3
5,B5,1.0
6,B6,−0.8
7,B7,1.5
8,B8,−1.0
9,B9,−0.9

# Same assay, conditions: arachidonic acid; response relative to ADIFAB2
row,Molecule,DR/DR AA
1,B10,0.605
2,B11,1.456
3,B12,4.836
4,B13,0.500
5,B14,4.229
6,B15,0.757
7,B16,0.873
8,B17,0.615 and 0.475

# Test: Probe fluorescence ratio response to oleic acid relative to ADIFAB2
# Format: binding
# Conditions: Table 4
# How it was run: as §1
row,Molecule,ΔR/DRAΔ2 OA
1,B1,1.1
2,B2,0.7
3,B3,−1.7
4,B4,0.7
5,B5,0.9
6,B6,−1.2
7,B7,1.1
8,B8,−1.4
9,B9,−1.3

# Same assay, conditions: response relative to ADIFAB2
row,Molecule,DR/DR OA
1,B10,0.646
2,B11,1.902
3,B12,3.312
4,B13,0.648
5,B14,2.755
6,B15,0.912
7,B16,1.149

# From US20060257938A1, “Method of screening for drugs that block ligand binding to a lipid binding protein” (priority 2005, published 2006)
